Data on five molecules can be found in patent publication US6335176B1, “Incorporation of phosphorylation sites” (Pharmacopeia, Inc., priority 1998, dated 2002).

Bridge positions count the residues as written; N and C are the ends. Square brackets hold non-standard residues; d marks the D form. Ends that are not written are not given here. I, II: the chains in the order shown. pS = N[C@@H](COP(=O)(O)O)C(=O)O

The target in one assay is T1, EpoR-Fc (Homo sapiens, UniProt P19235).
T1 construct: containing the extracellular domain of the erythropoietin receptor fused to the Fc region of human IgG
T1 sequence (P19235 25-250 limits assumed): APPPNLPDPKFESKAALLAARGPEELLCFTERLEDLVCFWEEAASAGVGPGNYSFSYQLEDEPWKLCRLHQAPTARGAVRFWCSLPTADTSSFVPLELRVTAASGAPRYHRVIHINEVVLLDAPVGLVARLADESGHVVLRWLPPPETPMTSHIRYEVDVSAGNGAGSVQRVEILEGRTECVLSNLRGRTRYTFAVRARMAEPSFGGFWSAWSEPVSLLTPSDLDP
In words: Saturation binding of Epo-Fc-[33P]phosphopeptide A to EpoR-Fc surface-coated plates. How it is done:
(§1) Ligand Binding Assays in Elisa Plate Format. Costar EIA 96-well microtiter plates (assay plates) were coated with 40 ul/well of a solution of anchoring antibody (˜1-5 ug/ml) or binding protein (0.1-0.5 ug/ml) in TBS and incubated overnight at 4° C. Plates were then blocked with 80 ul/well of 1% BSA/TBS for 30 min. Following removal of the blocking protein, 40 ul/well of receptor or receptor fusion protein (0.1-0.5 ug/ml) was added to the plate and incubated at ambient temperature for one hr. if an anchoring antibody step was used. The assay plate was then washed with TBS/0.01% BSA and 40 ul/well ligand at indicated concentrations was added. The assay plate was allowed to incubate at ambient temp. for ˜1-3 hr. with shaking and then washed three times with TBS/0.01% Tween 20 using a SkanWasher300 plate washer (Skatron, Sterling, Va.). Radiolabel was detected by the addition of 80 ul/well of Optiphase (Wallac, Turku, Finland) and the assay plate counted on a Wallace MicroBeta scintillation counter.
The cytokine receptor for erythropoietin was studied as a recombinant soluble Fc-fusion protein containing the extracellular domain of the erythropoietin receptor fused to the Fc region of human IgG. The ligand for this receptor, erythropoietin (Epo) was also prepared as an Fc-fusion, specifically as a fusion to the Fc region of mouse IgG. […]

The target in the next assay is T2, CXC2 receptor (Homo sapiens, UniProt P25025).
T2 construct: expressed in transfected cells; host or cells: CHO cells
T2 sequence (P25025 1-360): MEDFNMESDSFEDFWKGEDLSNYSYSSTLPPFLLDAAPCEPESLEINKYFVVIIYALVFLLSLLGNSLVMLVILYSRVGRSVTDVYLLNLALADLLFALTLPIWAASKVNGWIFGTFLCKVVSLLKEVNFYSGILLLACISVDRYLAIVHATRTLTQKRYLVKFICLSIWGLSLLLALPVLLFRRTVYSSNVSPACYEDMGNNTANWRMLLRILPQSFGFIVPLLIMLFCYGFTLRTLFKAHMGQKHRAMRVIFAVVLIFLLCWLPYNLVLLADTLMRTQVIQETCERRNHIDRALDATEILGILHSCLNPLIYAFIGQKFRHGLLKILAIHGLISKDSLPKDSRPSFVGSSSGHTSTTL
In words: Binding of IL8-[33P]phosphopeptide A to CXC2 receptors on CHO cells. The protocol: (§2) Ligand Binding Assays using Cells or Membranes. Cultured cells expressing the receptor of interest were suspended to ˜1.6×10^6 per ml in DMEM containing 0.1% FBS. 100 ul aliquots were incubated in a 96-well U-bottom polypropylene microtiter plate (assay plate) containing the indicated ligands. After the appropriate incubation time (˜1-3 hrs) cells were transferred to 1.5 ml eppendorf tubes and centrifuged at 2000 rpm (358×g) for 2 min at 6° C., supernatants aspirated and cells resuspended in 1 ml cell media and centrifuged again. The washed cells were resuspended in 20 ul of cell media and transferred to a microtiter plate, 80 ul/well of Optiphase® (Wallac, Turku, Finland) scintillation cocktail added and plates counted in a Wallac MicroBeta scintillation counter. For cells or membranes harvested by filtration, transfers from the assay plate were made directly to a Millipore 1.2 um GF/C filter plate treated or untreated with 0.3% PEI. Wells were washed with DMEM (3×100 ul) and a final wash with 100 ul water. Scintillation cocktail was added as described above.
(§3) Several ligands for commonly studied receptor families, G protein-coupled receptors (GPCRs) and cytokine receptors were labeled using the reagent of the invention. […]

For a further assay, the target named is T3, NK2 receptor (Rattus norvegicus, UniProt P16610).
T3 construct: expressed in transfected cells; host or cells: CHO cells
T3 sequence (P16610 1-390): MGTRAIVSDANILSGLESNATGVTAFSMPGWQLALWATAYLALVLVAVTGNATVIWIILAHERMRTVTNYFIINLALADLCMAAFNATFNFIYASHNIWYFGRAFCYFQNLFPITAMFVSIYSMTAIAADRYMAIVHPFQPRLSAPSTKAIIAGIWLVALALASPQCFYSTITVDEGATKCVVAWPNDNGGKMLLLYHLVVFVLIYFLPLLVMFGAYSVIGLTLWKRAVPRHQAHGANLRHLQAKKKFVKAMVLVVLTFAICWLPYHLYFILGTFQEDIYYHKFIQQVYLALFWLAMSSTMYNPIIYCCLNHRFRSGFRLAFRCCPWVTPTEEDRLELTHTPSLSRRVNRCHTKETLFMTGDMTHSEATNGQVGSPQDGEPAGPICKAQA
In words: Binding of NKA-[33P]phosphopeptide A to NK2 receptors on CHO cells (whole cell). The protocol: as §2, §3

For another assay, the target named is T4, ObR-Fc (Homo sapiens, UniProt P48357).
T4 construct: containing the extracellular domain of the ObR fused to the Fc region of human IgG; purchased R&D Systems, Minneapolis, Minn
T4 sequence (P48357 22-839 limits assumed): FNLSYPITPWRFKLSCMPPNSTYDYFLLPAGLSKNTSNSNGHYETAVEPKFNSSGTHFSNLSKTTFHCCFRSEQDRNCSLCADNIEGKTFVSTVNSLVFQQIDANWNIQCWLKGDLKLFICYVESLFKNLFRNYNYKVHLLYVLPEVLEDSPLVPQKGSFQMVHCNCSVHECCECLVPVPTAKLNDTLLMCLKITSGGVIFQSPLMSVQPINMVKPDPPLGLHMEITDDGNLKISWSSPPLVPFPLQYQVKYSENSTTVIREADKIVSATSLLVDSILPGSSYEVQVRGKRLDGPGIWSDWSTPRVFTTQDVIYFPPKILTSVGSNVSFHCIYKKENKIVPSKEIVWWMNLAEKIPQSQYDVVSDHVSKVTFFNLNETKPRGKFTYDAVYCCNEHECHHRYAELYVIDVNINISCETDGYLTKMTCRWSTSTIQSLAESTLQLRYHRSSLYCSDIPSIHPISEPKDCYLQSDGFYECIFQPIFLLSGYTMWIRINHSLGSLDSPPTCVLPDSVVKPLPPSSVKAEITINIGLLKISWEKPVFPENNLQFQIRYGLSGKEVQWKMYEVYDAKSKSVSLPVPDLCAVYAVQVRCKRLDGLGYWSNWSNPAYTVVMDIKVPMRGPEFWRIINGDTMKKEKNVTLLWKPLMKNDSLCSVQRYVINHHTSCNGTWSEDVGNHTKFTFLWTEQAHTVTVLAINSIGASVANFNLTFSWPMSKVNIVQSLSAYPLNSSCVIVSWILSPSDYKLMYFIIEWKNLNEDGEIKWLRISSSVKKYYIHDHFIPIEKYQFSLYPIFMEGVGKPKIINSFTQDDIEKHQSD
The experiment in a line: Saturation binding of leptin-[33P]phosphopeptide A to ObR-Fc surface-coated plates. The settings on record: at the highest concentration of labeled ligand. How it is done: as §1
The cytokine receptor for leptin, the Ob receptor (ObR), was studied as a soluble Fc-fusion protein containing the extracellular domain of the ObR fused to the Fc region of human IgG (R&D Systems, Minneapolis, Minn.). The ligand for this receptor, leptin (R&D Systems) was phosphorylated according to the method of invention as described above.

Assay [1] has as its target NK2 receptor recombinantly expressed in CHO cells. In words: saturation radioligand binding, CHO cells, 160,000 cells/assay (FIG. 9A).
Setting [2] is: saturation binding, 160,000 cells/assay.

NK2 receptor recombinantly expressed in CHO cells, sequence (P21452 whole entry): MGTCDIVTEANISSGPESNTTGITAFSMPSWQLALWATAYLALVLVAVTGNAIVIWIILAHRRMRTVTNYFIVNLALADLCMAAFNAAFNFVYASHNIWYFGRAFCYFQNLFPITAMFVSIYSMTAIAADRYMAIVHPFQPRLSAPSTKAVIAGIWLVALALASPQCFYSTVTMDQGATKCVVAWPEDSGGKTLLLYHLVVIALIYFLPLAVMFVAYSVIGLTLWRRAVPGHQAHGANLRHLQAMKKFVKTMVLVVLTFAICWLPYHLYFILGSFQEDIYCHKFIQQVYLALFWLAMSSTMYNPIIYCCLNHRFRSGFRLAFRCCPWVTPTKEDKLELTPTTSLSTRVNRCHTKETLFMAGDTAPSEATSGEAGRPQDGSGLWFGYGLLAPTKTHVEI

Turning to “N-α-acetyl-S-[Epo-Fc-8-amido-(6-aminothioacetyl)hexonyl]cys-ser-arg-arg-ala-[^33PO3]phosphoser-val-tyr-amide [Epo-Fc-[^33P]phosphopeptide A]”, the “amount detected at the highest concentration of labeled ligand” value on EpoR-Fc is reported as around 20 Fmol/well.

On to “N-α-acetyl-S-[IL8-amido-(6-aminothioacetyl)hexonyl]cys-ser-arg-arg-ala-[^33PO3]phosphoser-val-tyr-amide1-4 [IL8-[^33P]phosphopeptide A]”, for which the “specific binding to its receptor” value in the assay with CXC2 receptor (33P-labeled ligand, FIG. 8) is given as “bound specifically”. The Bmax with CXC2 receptor (setting [2]) is given as 110,000 receptors/cell.

Turning to “N-α-acetyl-S-[NKA-lys2N^e-amido-(6-aminothioacetyl)hexonyl]cys-ser-arg-arg-ala-[^33PO3]phosphoser-val-tyr-amide (peptide 1 HKTRSFVGLM-NH2; peptide 2 Ac-CSRRASVY-NH2; bridge I:2-II:1; not fully specified (some residues, bridges); printed as N-α-acetyl-S-[NKA-lys2N^e-amido-(6-aminothioacetyl)hexonyl]cys-ser-arg-arg-ala-[^33PO3]phosphoser-val-tyr-amide; also: phosphoserine carries [33P]phosphate label) [NKA-[^33P]phosphopeptide A]”, the “specific binding to its receptor” value with NK2 receptor (33P-labeled ligand, FIG. 8) is “bound specifically”. In addition, the Bmax in the assay with NK2 receptor (setting [2]) is listed as 700,000 receptors/cell.

As for “N-α-acetyl-S-[leptin-amido-)6-aminothioacetyl)hexonyl]cys-ser-arg-arg-ala-[^33PO3]phosphoser-val-tyr-amide1-2 [leptin [^33P]phosphopeptide A]”, in the assay with ObR-Fc, the saturation binding entry is recorded as “Binding was detected”.

B1: Neurokinin A-[^33PO3]peptide A conjugate (NKA-lys2N^e-[^33PO3]peptide A) (peptide)
peptide 1: HKTRSFVGLM-NH2
peptide 2: Ac-CSRRA[pS]VY-NH2
modifications: bridge I:2-II:1; not fully specified (some residues, bridges); printed as N-&agr,-acetyl-S-[NKA-lys2Ne-amido-(6-aminothioacetyl)hexonyl]cys-ser-arg-arg-ala-[33PO3]phosphoser-val-tyr-amide; also: 33P-labelled phosphate on phosphoserine of chain 2
Consider B1, for which the Bmax (receptors/cell) in assay [1] was determined as 700000.
